{
  "source": "paper PMC4835091",
  "binders": {"B1": {"name": "FtsZ (purified, WT), P0A9A6 CTV KQAD (380-383) replaced by NRNKRG (protein)", "chain": "MFEPMELTNDAVIKVIGVGGGGGNAVEHMVRERIEGVEFFAVNTDAQALRKTAVGQTIQIGSGITKGLGAGANPEVGRNAADEDRDALRAALEGADMVFIAAGMGGGTGTGAAPVVAEVAKDLGILTVAVVTKPFNFEGKKRMAFAEQGITELSKHVDSLITIPNDKLLKVLGRGISLLDAFGAANDVLKGAVQGIAELITRPGLMNVDFADVRTVMSEMGYAMMGSGVASGEDRAEEAAEMAISSPLLEDIDLSGARGVLVNITAGFDLRLDEFETVGNTIRAFASDNATVVIGTSLDPDMNDELRVTVVATGIGMDKRPEITLVTNKQVQQPVMDRYQQHGMAPLTQEQKPVAKVVNDNAPQTAKEPDYLDIPAFLRNRNKRG"}},
  "key": {"[1]": {"target": "T1, FtsZ(NRNKRG) (purified), P0A9A6", "T1 chain": "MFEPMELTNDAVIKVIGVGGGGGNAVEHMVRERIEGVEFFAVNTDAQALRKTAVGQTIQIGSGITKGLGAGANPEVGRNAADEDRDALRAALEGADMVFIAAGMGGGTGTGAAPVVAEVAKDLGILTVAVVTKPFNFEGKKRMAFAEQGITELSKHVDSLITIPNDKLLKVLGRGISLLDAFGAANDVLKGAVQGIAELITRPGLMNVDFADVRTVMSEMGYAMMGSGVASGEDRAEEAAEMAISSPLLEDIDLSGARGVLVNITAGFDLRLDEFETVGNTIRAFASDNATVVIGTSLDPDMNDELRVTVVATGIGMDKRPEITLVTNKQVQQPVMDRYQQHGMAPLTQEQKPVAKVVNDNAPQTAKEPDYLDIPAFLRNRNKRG", "assay": "sedimentation (co-pelleting) assay, SDS-PAGE quantification", "details": "chain shown with the change, 50 mM K-MOPS pH 6.5, 50 mM KCl, 2.5 mM MgCl2, 1 mM GTP, 3 µM BSA, read off a plot"}, "ZapD (purified), P36680": {"target": "T2, ZapD (purified), P36680", "T2 chain": "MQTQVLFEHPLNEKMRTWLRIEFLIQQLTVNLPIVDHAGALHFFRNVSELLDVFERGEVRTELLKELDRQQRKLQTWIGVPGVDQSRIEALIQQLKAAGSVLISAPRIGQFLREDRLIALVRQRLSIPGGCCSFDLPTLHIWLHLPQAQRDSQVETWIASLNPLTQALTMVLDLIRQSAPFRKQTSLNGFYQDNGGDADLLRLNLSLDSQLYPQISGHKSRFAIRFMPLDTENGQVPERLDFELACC", "assay": "co-sedimentation assay, SDS-PAGE quantification", "details": "chain shown with the change, 50 mM K-MOPS pH 6.5, 50 mM KCl, 2.5 mM MgCl2, 1 mM GTP, 3 µM BSA, read off a plot"}},
  "data": [
    {"binder": "B1", "values": [
      {"measurement": "response (% FtsZ in pellet)", "setting": "[1]; 5 µM FtsZ with ZapD at 1:0.2, parent: est. 44", "value": 34},
      {"measurement": "response (% FtsZ in pellet)", "setting": "[1]; 5 µM FtsZ with ZapD at 1:1, parent: est. 73", "value": 36},
      {"measurement": "response (% FtsZ in pellet)", "setting": "[1]; 5 µM FtsZ, no ZapD, parent: est. 26", "value": 31},
      {"measurement": "response (% ZapD in pellet)", "setting": "ZapD (purified), P36680; 5 µM FtsZ with ZapD at 1:0.2, parent: est. 62", "value": 17},
      {"measurement": "response (% ZapD in pellet)", "setting": "ZapD (purified), P36680; 5 µM FtsZ with ZapD at 1:1, parent: est. 55", "value": 23}
    ]}
  ]
}
